What follows are binders tested against HLA-A*24 (human) (assay: UV-ligand exchange, anti-b2m ELISA).

| Binder | peptide exchange yield |
| --- | --- |
| RYISDQLFTNF [peptide SEQ ID No 278 …] | > 75% |
| TYGDAGLTYTF [peptide SEQ ID No 283 …] | 50 to 75% |
| LYIDRPLPYL [peptide SEQ ID No 196 …] | 50 to 75% |
| EYQENFLSF [peptide SEQ ID No 206 …] | 50 to 75% |
| VYPWLGALL [peptide SEQ ID No 177 …] | > 75% |
| VFTRVSSFL [peptide SEQ ID No 162 …] | 50 to 75% |
| DYLKGLASF [peptide SEQ ID No 163 …] | > 75% |
| YYEVHKELF [peptide SEQ ID No 175 …] | > 75% |
| DYTTWTALL [peptide SEQ ID No 165 …] | > 75% |
| TYIESASEL [peptide SEQ ID No 279 …] | 50 to 75% |
| IYSWILDHF [peptide SEQ ID No 173 …] | > 75% |
| LYLDIINLF [peptide SEQ ID No 181 …] | > 75% |
| QYLENLEKL [peptide SEQ ID No 224 …] | 50 to 75% |
| EYNQWFTKL [peptide SEQ ID No 176 …] | 50 to 75% |
| RYLNKAFHI [peptide SEQ ID No 284 …] | 50 to 75% |
| VFKASKITF [peptide SEQ ID No 191 …] | 50 to 75% |
| QYSSVFKSL [peptide SEQ ID No 216 …] | > 75% |
| RYPDNLKHL [peptide SEQ ID No 286 …] | 20 to 49% |
| AYLHSHALI [peptide SEQ ID No 274 …] | > 75% |
| VYTLDIPVL [peptide SEQ ID No 160 …] | > 75% |
| LYLDKATLI [peptide SEQ ID No 198 …] | 50 to 75% |
| YYLEVGKTLI [peptide SEQ ID No 211 …] | > 75% |
| RYPDNLKHLYL [peptide SEQ ID No 280 …] | > 75% |
| IYKVGAPTI [peptide SEQ ID No 185 …] | 50 to 75% |
| LFIPSSKLLFL [peptide SEQ ID No 171 …] | 50 to 75% |

| Binder | peptide exchange yield |
| --- | --- |
| YYVYIMNHL [peptide SEQ ID No 225 …] | 50 to 75% |
| TYIKPISKL [peptide SEQ ID No 273 …] | 50 to 75% |
| VFTSTARAF [peptide SEQ ID No 183 …] | 50 to 75% |
| LYHDIFSRL [peptide SEQ ID No 271 …] | > 75% |
| RYSTGLAGNLL [peptide SEQ ID No 221 …] | 50 to 75% |
| IYQLDTASI [peptide SEQ ID No 182 …] | 50 to 75% |
| KYQDILETI [peptide SEQ ID No 168 …] | > 75% |
| HYSQELSLLYL [peptide SEQ ID No 158 …] | > 75% |
| EFGSLHLEFL [peptide SEQ ID No 194 …] | < 20% |
| IFLDYEAGTLSF [peptide SEQ ID No 227 …] | > 75% |
| VYGFQWRHF [peptide SEQ ID No 276 …] | > 75% |
| VYRDETGELF [peptide SEQ ID No 226 …] | 50 to 75% |
| SYALLTYMI [peptide SEQ ID No 192 …] | > 75% |
| IYLVSIPEL [peptide SEQ ID No 161 …] | > 75% |
| LYNKGFIYL [peptide SEQ ID No 159 …] | > 75% |
| LYLKLWNLI [peptide SEQ ID No 214 …] | 50 to 75% |
| EYSLFPGQVVI [peptide SEQ ID No 197 …] | 50 to 75% |
| FFPPTRQMGLLF [peptide SEQ ID No 217 …] | > 75% |
| EYINQGDLHEF [peptide SEQ ID No 275 …] | 50 to 75% |
| QYLQDAYSF [peptide SEQ ID No 272 …] | > 75% |
| VHIPEVYLI [peptide SEQ ID No 205 …] | 50 to 75% |
| TYTQDFNKF [peptide SEQ ID No 208 …] | 50 to 75% |
| IYDDSFIRPVTF [peptide SEQ ID No 180 …] | 50 to 75% |
| KYTSWYVAL [peptide SEQ ID No 228 …] | > 75% |
| WYVNGVNYF [peptide SEQ ID No 189 …] | 20 to 49% |

| Binder | peptide exchange yield |
| --- | --- |
| YFDKVVTL [peptide SEQ ID No 215 YFDKVVTL] | 20 to 49% |
| IFPQFLYQF [peptide SEQ ID No 186 …] | > 75% |
| IFIEVFSHF [peptide SEQ ID No 178 …] | 50 to 75% |
| NYINRILKL [peptide SEQ ID No 167 …] | > 75% |
| VFQNFPLLF [peptide SEQ ID No 184 …] | > 75% |
| YYVESGKLF [peptide SEQ ID No 166 …] | > 75% |
| VYVGGGQIIHL [peptide SEQ ID No 174 …] | 50 to 75% |
| AYTLIAPNI [peptide SEQ ID No 169 …] | 50 to 75% |
| MYDSYWRQF [peptide SEQ ID No 179 …] | > 75% |
| RFHPTPLLL [peptide SEQ ID No 193 …] | > 75% |
| TYTTVPRVAF [peptide SEQ ID No 172 …] | > 75% |
| VYEDQVGKF [peptide SEQ ID No 170 …] | 20 to 49% |
| TYSVSFPMF [peptide SEQ ID No 195 …] | > 75% |
| KYIPYKYVI [peptide SEQ ID No 223 …] | 50 to 75% |
| KYPVEWAKF [peptide SEQ ID No 289 …] | > 75% |
| KFVDSTFYL [peptide SEQ ID No 282 …] | > 75% |
| IYTMIYRNL [peptide SEQ ID No 210 …] | > 75% |
| EYPLVINTL [peptide SEQ ID No 219 …] | 50 to 75% |
| TYLRDQHFL [peptide SEQ ID No 187 …] | > 75% |
| RYFKGLVF [peptide SEQ ID No 188 RYFKGLVF] | 50 to 75% |
| KFSSFSLFF [peptide SEQ ID No 164 …] | 50 to 75% |
| KYMVYPQTF [peptide SEQ ID No 267 …] | > 75% |
| GFFIFNERF [peptide SEQ ID No 190 …] | 50 to 75% |
| VYVSDIQEL [peptide SEQ ID No 288 …] | 50 to 75% |
| FYSRLLQKF [peptide SEQ ID No 203 …] | 50 to 75% |
